Source: patent US20060270596A1 (CENTRE NATIONAL DE LA RECHERCHE SCIENTIFIQUE CNRS, published 2006)
Blank lines part the entries; values can stand above or below the binder they belong to.

How the values were obtained:
chemokine CXCL2 = molecular target: T1, chemokine CXCL2 (UniProt P19875 1-107, limits assumed); assay: GST pull-down, 35S-labelled in vitro translated molecule
T1 construct: 35S-labelled in vitro translation product
T1 sequence (looked up): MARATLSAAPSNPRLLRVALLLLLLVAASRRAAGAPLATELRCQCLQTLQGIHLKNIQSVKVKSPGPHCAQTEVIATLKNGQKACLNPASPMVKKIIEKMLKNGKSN

[1] = molecular target: T2, THAP1-N2 deletion mutant (amino acids 1-166) (human, UniProt Q9NVV9 1-166); assay: yeast two-hybrid
T2 construct: Gal4 fusion, in vitro translation product or GFP fusion according to assay
T2 sequence: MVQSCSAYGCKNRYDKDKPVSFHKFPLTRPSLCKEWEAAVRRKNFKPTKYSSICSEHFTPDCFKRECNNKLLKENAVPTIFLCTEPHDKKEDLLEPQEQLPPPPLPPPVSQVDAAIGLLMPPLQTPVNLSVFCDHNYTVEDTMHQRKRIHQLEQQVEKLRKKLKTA

[2] = molecular target: T3, THAP1-N3 deletion mutant (amino acids 1-192) (human, UniProt Q9NVV9 1-192); assay: yeast two-hybrid
T3 construct: Gal4 fusion, in vitro translation product or GFP fusion according to assay
T3 sequence: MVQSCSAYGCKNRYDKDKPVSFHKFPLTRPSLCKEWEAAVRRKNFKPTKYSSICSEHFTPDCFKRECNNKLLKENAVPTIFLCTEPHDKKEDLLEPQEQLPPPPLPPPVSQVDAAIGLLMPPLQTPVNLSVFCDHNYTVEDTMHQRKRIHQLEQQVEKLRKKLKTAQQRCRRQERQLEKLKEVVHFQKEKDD

[3] = molecular target: T4, THAP1-C1 deletion mutant (amino acids 90-213) (human, UniProt Q9NVV9 90-213); assay: yeast two-hybrid
T4 construct: Gal4 fusion, in vitro translation product or GFP fusion according to assay; also called THAP1-CL; THAP1ΔTHAP
T4 sequence: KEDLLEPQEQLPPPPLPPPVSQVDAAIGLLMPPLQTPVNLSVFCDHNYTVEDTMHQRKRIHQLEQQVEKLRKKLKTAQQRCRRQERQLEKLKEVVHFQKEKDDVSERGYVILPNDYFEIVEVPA

[4] = molecular target: T5, THAP1ΔQRCRR mutant (deletion of residues 168-172) (human, UniProt Q9NVV9 1-213); assay: yeast two-hybrid, SLC/CCL21 bait
T5 sequence: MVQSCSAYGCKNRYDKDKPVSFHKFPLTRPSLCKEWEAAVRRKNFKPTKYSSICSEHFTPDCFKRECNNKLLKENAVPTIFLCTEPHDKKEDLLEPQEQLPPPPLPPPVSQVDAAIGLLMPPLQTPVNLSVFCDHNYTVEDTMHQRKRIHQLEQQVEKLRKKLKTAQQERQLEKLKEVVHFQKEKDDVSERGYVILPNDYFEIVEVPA

[5] = molecular target: T6, GST (glutathione S-transferase) control protein (UniProt P08515 1-218 = GST); assay: GST pull-down, 35S-labelled in vitro translated SLC/CCL21
T6 construct: Negative control in GST pull-down assays; also called GST beads; GST alone
Description: To confirm the interaction observed in yeast two-hybrid system, we performed in vitro GST pull down assays. THAP1, expressed as a GST-tagged fusion protein and immobilized on glutathione sepharose, was incubated with radiolabeled in vitro translated SLC/CCL21.

[6] = molecular target: T7, human THAP1 (THanatos-Associated-Protein-1), full length (human, UniProt Q9NVV9 1-213); assay: yeast two-hybrid, chemokine bait and THAP1 prey
T7 construct: these tags are not written into the chain; also called hTHAP1; THAP1 wild type
T7 sequence: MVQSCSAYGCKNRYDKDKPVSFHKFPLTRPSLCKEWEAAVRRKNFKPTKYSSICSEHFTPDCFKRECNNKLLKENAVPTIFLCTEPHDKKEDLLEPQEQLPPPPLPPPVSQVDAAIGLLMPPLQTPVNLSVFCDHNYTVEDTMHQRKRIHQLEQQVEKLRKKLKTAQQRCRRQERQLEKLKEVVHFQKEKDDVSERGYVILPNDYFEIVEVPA

T6 sequence (P08515 whole entry): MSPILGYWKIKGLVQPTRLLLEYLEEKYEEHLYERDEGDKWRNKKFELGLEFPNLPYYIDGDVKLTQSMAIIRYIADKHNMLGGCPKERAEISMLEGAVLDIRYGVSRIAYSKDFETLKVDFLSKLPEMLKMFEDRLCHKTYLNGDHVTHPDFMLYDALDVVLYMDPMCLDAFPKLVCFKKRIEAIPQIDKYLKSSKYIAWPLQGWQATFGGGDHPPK

- binding result (chemokine CXCL2): no binding
B1: GST-THAP3 181-284 (chemokine-binding domain of THAP3) (other)
chain: LPPNAEGHVKQVSPRRPQATEAVGRPTGPAGLRRTPNKQPSDHSYALLDLDSLKKKLFLTLKENEKLRKRLQAQRLVMRRMSSRLRACKGHQGLQARLGPEQQS
notes: not shown: GST (glutathione S-transferase of pGEX2T) and its linker at the N end

- binding result [1]: no binding
- binding result [2]: no binding
- binding result [3]: binds
- binding result [4]: no binding
- binding result [5]: no binding
- binding result [6]: binds
B2: human chemokine SLC/CCL21, mature form (amino acids 24-134) (ligand)
chain: SDGGAQDCCLKYSQRKIPAKVVRSYRKQEPSLGCSIPAILFLPRKRSQAELCADPKELWVQQLMQHLDKTPSPQKPAQGCRKDRGASKTGKKGKGSKGCKRTERSQTPKGP
notes: GenBank NP-002980; Used as Gal4 fusion in two-hybrid and as 35S-labelled in vitro translation product in pull-downs; also called SLC/6Ckine; SLC/CCL21 wild type
